In the test the target is OMCP. Description: method not stated.

The term Kd denotes a measure of binding affinity in units of concentration. The low end stands for a tighter complex, the high end for a looser complex.

B1: human NKG2D (Example 21) (receptor)
chain: NSLFNQEVQIPLTESYCGPCPKNWICYKNNCYQFFDESKNWYESQASCMSQNASLLKVYSKEDQDLLKLVKSYHWMGLVHIPTNGSWQWEDGSILSPNLLTIIEMQKGDCALYASSFKGYIENCSTPNTYICMQRTV
As for B1, the affinity, expressed as Kd, was 0.1 nM.

Source of the values: patent US20210284706A1 (published 2021).
